Assay results as given in patent US8034572B2, “Receptor for GDNF family ligands” (priority 2006, dated 2011).

Assays:
[1] = Binding of ^125I-labeled GFLs to heparin-sepharose column, step NaCl elution
Procedure: GFL iodination was performed as described (Lindahl et al., 2001). Heparin-sepharose column (Amersham Biosciences) chromatography was performed to assess GFL binding to heparin. GDNF, ARTN, NRTN and PSPN were purchased from PeproTech, Ltd. or R&D Systems, Inc. GFLs were enzymatically labeled with carrier-free [^125I]NaI (Amersham Biosciences) by the lactoperoxidase method to a specific activity of 100000-200000 cpm/ng as described elsewhere (Lindahl et al., 2001). 15000-20000 cpm of iodinated GFLs, together with 10 μg of the same unlabeled protein as a carrier, were injected into a 1 ml heparin-sepharose column (Amersham Biosciences) in phosphate buffer pH 7.2 containing 100 mM NaCl and 10 mg/ml of BSA. After washing with 5 volumes of the same buffer, iodinated GFLs were eluted from the column by step elution (2 ml) with increasing NaCl concentration. The resulting fractions were counted on Rackbeta 1214 (LKB/Wallac) scintillation counter.

[2] = system: rat embryonic hippocampal neurons; assay: Neurite outgrowth assay in E17 rat hippocampal neurons; type: cell-based
Procedure: Hippocampi were dissected from E17 embryonic rat brains under the microscope and transferred to the preparation media (HBBS without Ca^2+ and Mg^2+ supplemented with 1 mM sodium pyruvate (Gibco) and buffered by 10 mM Hepes pH 7.2), then partially digested by papain and triturated in the preparation media supplemented with DNase I. Cells were washed with HBBS containing Ca^2+ and Mg^2+ and transferred to the growth media (Neurobasal media with B27 supplement, 2 mM L-glutamine, 25 μM glutamic acid and penicillin and streptomycin (Gibco)). For enzymatic treatments neurons were kept in the growth media supplemented with 0.2% BSA at +37° C. for one hour. After the treatment cells in the same media were seeded on the protein-coated cover slips (see above) and after 10 min, the media was changed for B27-free media. Neurons were incubated at +37° C., 5% CO2 for 18 hours.
For immunocytochemistry neurons were washed with PBS and fixed with 4% PFA, permeabilized with 0.1% Triton X-100 and stained with rabbit polyclonal antiserum to Protein Gene Product 9.5 (Affiniti), neuron-specific Class III tubulin-βIII clone Tuj1 antibodies (BABCO) or with antibodies against the neurofilament triplet, 13AA8 (Arumäe et al., 1993). Secondary antibodies were goat anti-rabbit or anti-mouse Alexa488-conjugated (Molecular Probes).
The immunostained cultures were viewed using the ×20 objective of a Zeiss Axioplan 2 fluorescent microscope (Zeiss). Neurons with at least two times longer than cell body diameter processes were considered process-bearing. Three cover slips were used in parallel and 100 neurons per cover slip were counted. Results were derived from 3 to 5 independent experiments.

[3] = system: E15 mouse cortical neurons; assay: Cortical neurons migration assay (transfilter); type: cell-based; details: 16 hours
Procedure: Cortical lobes from E15 mouse brains were dissected under a stereomicroscope and dissociated using a 20 G needle and a syringe in DMEM containing 10% FCS. The cortical preparation was spun down at 1000 rpm for 5 min and the pellet was washed with culture medium containing serum. The pellet was carefully resuspended and the preparation was allowed to sediment for five more minutes before the cleared supernatant was collected. The cells in the supernatant were allowed to recover in serum-containing DMEM for 30-60 min. Recovered cells were washed once with the assay medium (DMEM with 10 mg/ml BSA, L-glutamine and antibiotics) and resuspended in the same medium.
Transwell filters (Costar) with 12-μm pore size or polycarbonate filters saturated with 100 μg/ml poly-L-lysine were coated with GDNF or ΔN-GDNF in 1 μM, 10 μM and 100 μM concentrations overnight at 4° C. and equilibrated with assay medium 30 min in +37° C. incubator prior to use. The spontaneous and random migratory activity of neural cells was controlled with uncoated filters.
Embryonic cortical cells were plated on the filters at 150000 cells per filter and left to migrate for 16 hours. […] The number of cells that had migrated to the coated surface of the filters was calculated using the inverted light microscope Olympus IX71.

[4] = SPR (IAsys): heparin interaction with GFLs cuvette; type: binding; details: GFLs cuvette
Procedure: The affinities of GFLs for heparin and heparin-like molecules (e.g. syndecan-3) were determined by plasmon surface resonance using the IAsys system (Affinity Sensors, Cambridge, UK). Planar aminosilane cuvettes (Affinity Sensors) were used for protein coupling to avoid problems with mass transport, which occur frequently with matrix surfaces. In the initial approach, heparin-BSA was immobilized to the cuvette surface using the manufacturer's instructions and different ligand concentrations were used to determine association (ka) and dissociation (kdis) rates using the IAsys Fastfit software. The dissociation constant Kd was determined from the binding dynamics as […], or from equilibrium response (R) using a simple Langmuir fit: R=(Rmax*C)/(Kd+C), where C is the ligand concentration. […] The dissociation constants were determined from binding dynamics and equilibrium response. The same cuvettes were used to test binding of heparan sulfate proteoglycan syndecan-3, which was purified as an ectodomain from early postnatal rat brains by HB-GAM affinity chromatography (Raulo et al., 1994).
Binding was analyzed using IAsys cuvettes with immobilized heparin-BSA or GFLs. The dissociation constant Kd was determined from dynamics of association and dissociation (Kd=kdis/ka), or from equilibrium response R (R=(Rmax*C)/(Kd+C), where C is ligand concentration).

NaCl concentration at elution from heparin-sepharose column ([1]; ^125I-GFLs, step NaCl gradient): 0.75 to 1 M | binding to heparin-sepharose column ([1]; ^125I-labeled GFLs): bind strongly to heparin | Kd = kdis/ka ([4]; from dynamics): 22.7 ± 2.7 nM | Kd ([4]; from equilibrium response, read-out: Kd (equilibrium)): 12.3 ± 3.4 nM
B1: GDNF: Glial cell line-derived neurotrophic factor, secreted growth factor, GDNF family ligand (protein)
chain: SPDKQMAVLPRRERNRQAAAANPENSRGKGRRGQRGKNRGCVLTAIHLNVTDLGLGYETKEELIFRYCSGSCDAAETTYDKILKNLSRNRRLVSDKVGQACCRPIAFDDDLSFLDDNLVYHILRKHSAKRCGCI
neurite outgrowth on immobilized protein ([2]; E17 rat hippocampal neurons, 18 hours): stimulated neurite outgrowth | neurite outgrowth with soluble protein ([2]; soluble GDNF added to neurons grown on BSA-matrix): failed to induce neurites | migration of syndecan-3-deficient embryonic cortical neurons ([3]; filters coated with GDNF): strongly impaired | migration of wild type embryonic cortical cells ([3]; filters coated with protein): stimulated massive migration | ka (×10^−5) (M^−1s^−1) ([4]; heparin in solution): 15 (×10^−5) M^−1s^−1 | kdis ([4]; heparin in solution): 0.034 s⁻¹
